# Publication PMC5057313
# Biological target: Arabidopsis ferredoxin : thioredoxin reductase catalytic subunit (AtFTRc), prey in pGADT7 (Arabidopsis thaliana) (UniProt Q9SJ89)
# UniProt Q9SJ89, sequence (Q9SJ89 whole entry): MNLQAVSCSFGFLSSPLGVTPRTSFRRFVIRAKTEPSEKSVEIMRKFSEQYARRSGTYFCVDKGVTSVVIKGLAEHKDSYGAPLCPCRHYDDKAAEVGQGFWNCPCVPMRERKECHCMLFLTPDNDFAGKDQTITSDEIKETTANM
substance,measurement,value
"MjTTL5 (transthyretin-like protein 5 of Meloidogyne javanica), bait in pGBKT7 (natural protein)",H2O2 consumption of wild-type Arabidopsis protein with MjTTL5 against the MjTTL5-free treatment (only 1.8-fold in the AtFTRc mutants; Fig. S16c),2.5 fold
